The values that follow come from patent publication US20230029307A1.

In this test the target is rhVEGF165 (R&D Systems, Cat #293-VE-010) (human) (UniProt P15692). Kind of test: cell-based or functional assay.
rhVEGF165 (R&D Systems, Cat #293-VE-010) (human), sequence (P15692 other isoform, or with tags, fused parts or gaps limits assumed): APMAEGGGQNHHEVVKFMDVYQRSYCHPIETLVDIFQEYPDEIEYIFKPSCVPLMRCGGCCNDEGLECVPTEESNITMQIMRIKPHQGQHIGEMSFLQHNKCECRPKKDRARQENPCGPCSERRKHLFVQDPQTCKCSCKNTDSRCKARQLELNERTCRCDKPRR

In turn, “Aflibercept (EYLEA) (from UniProt P17948 129-230; P35968 225-327) (Fc fusion)” showed a maximal % inhibition of VEGF-stimulated BCEC proliferation of under 80%.
